Among the data in publication PMC4807369 are stoichiometry N values, retold here.

The target of this experiment is IrmA secreted from E. coli MG1655 carrying a plasmid encoding irmA (strain MS5667) (Escherichia coli). Put plainly: native gel or EMSA. (A gel shift assay detects complexes by their altered migration in electrophoresis.)

Consider “IrmA secreted from E. coli MG1655 carrying a plasmid encoding irmA (strain MS5667) (natural protein)”, for which the stoichiometry N – broadly, the number of molecules, sites or subunits per partner or assembly – is 2.
